Measurements as given in PMC4332406.

Target: Human α-defensin 5 (human)
Experiment: SPR

Human α-defensin 5 (peptide)
molar ratio: 1 | stoichiometry N: 2
